# Biological target: T1, CD3ε homodimer protein (human, UniProt P07766 23-126, limits assumed)
# T1 construct: also called CD3 (CD3ε)
# Assay: SPR Biacore T200, CD3ε homodimer on chip;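 also: Light-chain single-residue variant antibodies injected over amine-coupled CD3ε homodimer on a CM4 chip at 25 °C, bound amount divided by that of the GLS3000-containing antibody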
# T1 sequence (P07766 23-126 limits assumed): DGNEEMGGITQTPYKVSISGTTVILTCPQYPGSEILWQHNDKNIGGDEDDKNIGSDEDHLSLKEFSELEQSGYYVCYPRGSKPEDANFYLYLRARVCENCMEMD
row,ratio of amount bound vs unaltered GLS3000,Binder
1,0.23,"GLS3000 H27dE one-arm antibody (antibody, human IgG1, kappa, L234A L235A, N297A, name in Kabat numbering) heavy: QVQLVESGGGVVQPGRSLRLSCAASGFTFSNAWMHWVRQAPGKGLEWVAQIKAKSNNYATYYAESVKGRFTISRDDSKNSLYLQMNSLKTEDTAVYYCRYVHYGAYYGVDAWGQGTTVTVSSASTKGPSVFPLAPSSKSTSGGTAALGCLVKDYFPEPVTVSWNSGALTSGVHTFPAVLQSSGLYSLSSVVTVPSSSLGTQTYICNVNHKPSNTKVDKKVEPKSCDKTHTCPPCPAPEAAGGPSVFLFPPKPKDTLMISRTPEVTCVVVDVSHEDPEVKFNWYVDGVEVHNAKTKPREEQYASTYRVVSVLTVLHQDWLNGKEYKCKVSNKALPAPIEKTISKAKGQPREPQVYTLPPSRCELTKNQVSLSCAVKGFYPSDIAVEWESNGQPENNYKTTPPVLDSDGSFFLVSKLTVDKSRWQQGNVFSCSVMHEALHNHYTQKSLSLSPDYKDDDDK EPKSSDKTHTCPPCPAPELLGGPSVFLFPPKPKDTLMISRTPEVTCVVVDVSHEDPEVKFNWYVDGVEVHNAKTKPREEQYNSTYRVVSVLTVLHQDWLNGKEYKCKVSNKALPAPIEKTISKAKGQPREPQVCTLPPSRDELTKNQVSLWCLVKGFYPSDIAVEWESNGQPENNYKTTPPVLDSDGSFFLYSKLTVDKSRWQQGNVFSCSVMHEALHNRYTQKSLSLSP light: DIVMTQSPLSLPVTPGEPASISCRSSQSLVESNRNTYLHWYQQKPGQAPRLLIYKVSNRFSGVPDRFSGSGSGTDFTLKISRVEAEDVGVYYCGQGTQVPYTFGQGTKLEIKRTVAAPSVFIFPPSDEQLKSGTASVVCLLNNFYPREAKVQWKVDNALQSGNSQESVTEQDSKDSTYSLSSTLTLSKADYEKHKVYACEVTHQGLSSPVTKSFNRGEC"
2,0.63,"GLS3000 H27dF one-arm antibody (antibody, human IgG1, kappa, L234A L235A, N297A, name in Kabat numbering) heavy: QVQLVESGGGVVQPGRSLRLSCAASGFTFSNAWMHWVRQAPGKGLEWVAQIKAKSNNYATYYAESVKGRFTISRDDSKNSLYLQMNSLKTEDTAVYYCRYVHYGAYYGVDAWGQGTTVTVSSASTKGPSVFPLAPSSKSTSGGTAALGCLVKDYFPEPVTVSWNSGALTSGVHTFPAVLQSSGLYSLSSVVTVPSSSLGTQTYICNVNHKPSNTKVDKKVEPKSCDKTHTCPPCPAPEAAGGPSVFLFPPKPKDTLMISRTPEVTCVVVDVSHEDPEVKFNWYVDGVEVHNAKTKPREEQYASTYRVVSVLTVLHQDWLNGKEYKCKVSNKALPAPIEKTISKAKGQPREPQVYTLPPSRCELTKNQVSLSCAVKGFYPSDIAVEWESNGQPENNYKTTPPVLDSDGSFFLVSKLTVDKSRWQQGNVFSCSVMHEALHNHYTQKSLSLSPDYKDDDDK EPKSSDKTHTCPPCPAPELLGGPSVFLFPPKPKDTLMISRTPEVTCVVVDVSHEDPEVKFNWYVDGVEVHNAKTKPREEQYNSTYRVVSVLTVLHQDWLNGKEYKCKVSNKALPAPIEKTISKAKGQPREPQVCTLPPSRDELTKNQVSLWCLVKGFYPSDIAVEWESNGQPENNYKTTPPVLDSDGSFFLYSKLTVDKSRWQQGNVFSCSVMHEALHNRYTQKSLSLSP light: DIVMTQSPLSLPVTPGEPASISCRSSQSLVFSNRNTYLHWYQQKPGQAPRLLIYKVSNRFSGVPDRFSGSGSGTDFTLKISRVEAEDVGVYYCGQGTQVPYTFGQGTKLEIKRTVAAPSVFIFPPSDEQLKSGTASVVCLLNNFYPREAKVQWKVDNALQSGNSQESVTEQDSKDSTYSLSSTLTLSKADYEKHKVYACEVTHQGLSSPVTKSFNRGEC"
3,0.3,"GLS3000 H27dG one-arm antibody (antibody, human IgG1, kappa, L234A L235A, N297A, name in Kabat numbering) heavy: QVQLVESGGGVVQPGRSLRLSCAASGFTFSNAWMHWVRQAPGKGLEWVAQIKAKSNNYATYYAESVKGRFTISRDDSKNSLYLQMNSLKTEDTAVYYCRYVHYGAYYGVDAWGQGTTVTVSSASTKGPSVFPLAPSSKSTSGGTAALGCLVKDYFPEPVTVSWNSGALTSGVHTFPAVLQSSGLYSLSSVVTVPSSSLGTQTYICNVNHKPSNTKVDKKVEPKSCDKTHTCPPCPAPEAAGGPSVFLFPPKPKDTLMISRTPEVTCVVVDVSHEDPEVKFNWYVDGVEVHNAKTKPREEQYASTYRVVSVLTVLHQDWLNGKEYKCKVSNKALPAPIEKTISKAKGQPREPQVYTLPPSRCELTKNQVSLSCAVKGFYPSDIAVEWESNGQPENNYKTTPPVLDSDGSFFLVSKLTVDKSRWQQGNVFSCSVMHEALHNHYTQKSLSLSPDYKDDDDK EPKSSDKTHTCPPCPAPELLGGPSVFLFPPKPKDTLMISRTPEVTCVVVDVSHEDPEVKFNWYVDGVEVHNAKTKPREEQYNSTYRVVSVLTVLHQDWLNGKEYKCKVSNKALPAPIEKTISKAKGQPREPQVCTLPPSRDELTKNQVSLWCLVKGFYPSDIAVEWESNGQPENNYKTTPPVLDSDGSFFLYSKLTVDKSRWQQGNVFSCSVMHEALHNRYTQKSLSLSP light: DIVMTQSPLSLPVTPGEPASISCRSSQSLVGSNRNTYLHWYQQKPGQAPRLLIYKVSNRFSGVPDRFSGSGSGTDFTLKISRVEAEDVGVYYCGQGTQVPYTFGQGTKLEIKRTVAAPSVFIFPPSDEQLKSGTASVVCLLNNFYPREAKVQWKVDNALQSGNSQESVTEQDSKDSTYSLSSTLTLSKADYEKHKVYACEVTHQGLSSPVTKSFNRGEC"
4,0.29,"GLS3000 H27dK one-arm antibody (antibody, human IgG1, kappa, L234A L235A, N297A, name in Kabat numbering) heavy: QVQLVESGGGVVQPGRSLRLSCAASGFTFSNAWMHWVRQAPGKGLEWVAQIKAKSNNYATYYAESVKGRFTISRDDSKNSLYLQMNSLKTEDTAVYYCRYVHYGAYYGVDAWGQGTTVTVSSASTKGPSVFPLAPSSKSTSGGTAALGCLVKDYFPEPVTVSWNSGALTSGVHTFPAVLQSSGLYSLSSVVTVPSSSLGTQTYICNVNHKPSNTKVDKKVEPKSCDKTHTCPPCPAPEAAGGPSVFLFPPKPKDTLMISRTPEVTCVVVDVSHEDPEVKFNWYVDGVEVHNAKTKPREEQYASTYRVVSVLTVLHQDWLNGKEYKCKVSNKALPAPIEKTISKAKGQPREPQVYTLPPSRCELTKNQVSLSCAVKGFYPSDIAVEWESNGQPENNYKTTPPVLDSDGSFFLVSKLTVDKSRWQQGNVFSCSVMHEALHNHYTQKSLSLSPDYKDDDDK EPKSSDKTHTCPPCPAPELLGGPSVFLFPPKPKDTLMISRTPEVTCVVVDVSHEDPEVKFNWYVDGVEVHNAKTKPREEQYNSTYRVVSVLTVLHQDWLNGKEYKCKVSNKALPAPIEKTISKAKGQPREPQVCTLPPSRDELTKNQVSLWCLVKGFYPSDIAVEWESNGQPENNYKTTPPVLDSDGSFFLYSKLTVDKSRWQQGNVFSCSVMHEALHNRYTQKSLSLSP light: DIVMTQSPLSLPVTPGEPASISCRSSQSLVKSNRNTYLHWYQQKPGQAPRLLIYKVSNRFSGVPDRFSGSGSGTDFTLKISRVEAEDVGVYYCGQGTQVPYTFGQGTKLEIKRTVAAPSVFIFPPSDEQLKSGTASVVCLLNNFYPREAKVQWKVDNALQSGNSQESVTEQDSKDSTYSLSSTLTLSKADYEKHKVYACEVTHQGLSSPVTKSFNRGEC"
5,0.3,"GLS3000 H27dL one-arm antibody (antibody, human IgG1, kappa, L234A L235A, N297A, name in Kabat numbering) heavy: QVQLVESGGGVVQPGRSLRLSCAASGFTFSNAWMHWVRQAPGKGLEWVAQIKAKSNNYATYYAESVKGRFTISRDDSKNSLYLQMNSLKTEDTAVYYCRYVHYGAYYGVDAWGQGTTVTVSSASTKGPSVFPLAPSSKSTSGGTAALGCLVKDYFPEPVTVSWNSGALTSGVHTFPAVLQSSGLYSLSSVVTVPSSSLGTQTYICNVNHKPSNTKVDKKVEPKSCDKTHTCPPCPAPEAAGGPSVFLFPPKPKDTLMISRTPEVTCVVVDVSHEDPEVKFNWYVDGVEVHNAKTKPREEQYASTYRVVSVLTVLHQDWLNGKEYKCKVSNKALPAPIEKTISKAKGQPREPQVYTLPPSRCELTKNQVSLSCAVKGFYPSDIAVEWESNGQPENNYKTTPPVLDSDGSFFLVSKLTVDKSRWQQGNVFSCSVMHEALHNHYTQKSLSLSPDYKDDDDK EPKSSDKTHTCPPCPAPELLGGPSVFLFPPKPKDTLMISRTPEVTCVVVDVSHEDPEVKFNWYVDGVEVHNAKTKPREEQYNSTYRVVSVLTVLHQDWLNGKEYKCKVSNKALPAPIEKTISKAKGQPREPQVCTLPPSRDELTKNQVSLWCLVKGFYPSDIAVEWESNGQPENNYKTTPPVLDSDGSFFLYSKLTVDKSRWQQGNVFSCSVMHEALHNRYTQKSLSLSP light: DIVMTQSPLSLPVTPGEPASISCRSSQSLVLSNRNTYLHWYQQKPGQAPRLLIYKVSNRFSGVPDRFSGSGSGTDFTLKISRVEAEDVGVYYCGQGTQVPYTFGQGTKLEIKRTVAAPSVFIFPPSDEQLKSGTASVVCLLNNFYPREAKVQWKVDNALQSGNSQESVTEQDSKDSTYSLSSTLTLSKADYEKHKVYACEVTHQGLSSPVTKSFNRGEC"
6,0.26,"GLS3000 H27dI one-arm antibody (antibody, human IgG1, kappa, L234A L235A, N297A, name in Kabat numbering) heavy: QVQLVESGGGVVQPGRSLRLSCAASGFTFSNAWMHWVRQAPGKGLEWVAQIKAKSNNYATYYAESVKGRFTISRDDSKNSLYLQMNSLKTEDTAVYYCRYVHYGAYYGVDAWGQGTTVTVSSASTKGPSVFPLAPSSKSTSGGTAALGCLVKDYFPEPVTVSWNSGALTSGVHTFPAVLQSSGLYSLSSVVTVPSSSLGTQTYICNVNHKPSNTKVDKKVEPKSCDKTHTCPPCPAPEAAGGPSVFLFPPKPKDTLMISRTPEVTCVVVDVSHEDPEVKFNWYVDGVEVHNAKTKPREEQYASTYRVVSVLTVLHQDWLNGKEYKCKVSNKALPAPIEKTISKAKGQPREPQVYTLPPSRCELTKNQVSLSCAVKGFYPSDIAVEWESNGQPENNYKTTPPVLDSDGSFFLVSKLTVDKSRWQQGNVFSCSVMHEALHNHYTQKSLSLSPDYKDDDDK EPKSSDKTHTCPPCPAPELLGGPSVFLFPPKPKDTLMISRTPEVTCVVVDVSHEDPEVKFNWYVDGVEVHNAKTKPREEQYNSTYRVVSVLTVLHQDWLNGKEYKCKVSNKALPAPIEKTISKAKGQPREPQVCTLPPSRDELTKNQVSLWCLVKGFYPSDIAVEWESNGQPENNYKTTPPVLDSDGSFFLYSKLTVDKSRWQQGNVFSCSVMHEALHNRYTQKSLSLSP light: DIVMTQSPLSLPVTPGEPASISCRSSQSLVISNRNTYLHWYQQKPGQAPRLLIYKVSNRFSGVPDRFSGSGSGTDFTLKISRVEAEDVGVYYCGQGTQVPYTFGQGTKLEIKRTVAAPSVFIFPPSDEQLKSGTASVVCLLNNFYPREAKVQWKVDNALQSGNSQESVTEQDSKDSTYSLSSTLTLSKADYEKHKVYACEVTHQGLSSPVTKSFNRGEC"
